In publication PMC2172285:

Target: cortactin, endogenous in hE-CHO cells (hamster (endogenous in CHO))
Assay: co-IP

- percent of total cellular E-cadherin found in the cortactin immunoprecipitates: 1 to 2%
Substance: human E-cadherin stably expressed in CHO cells (hE-CHO cells) (from UniProt P12830 155-882) (receptor)
